From patent publication US20190144566A1 (ORUM THERAPEUTICS, published 2019)

Target: T1, mCherry (red fluorescence) H-RAS G12V (UniProt P01112 1-186)
T1 construct: Expressed inside NIH3T3 cells, located at the inner cell membrane; also called intracellular H-RAS G12V mutants; not shown: mCherry red fluorescent protein
Assay: confocal co-localisation in NIH3T3 cells expressing mCherry H-RAS G12V

B1: cytosol-penetrating antibody (cytotransmab) TMab4 (antibody, V domains shown)
VH: EVQLVESGGGLVQPGGSLRLSCAASGYTFTSYVMHWVRQAPGKGLEWVSAINPYNDGNYYADSVKGRFTISRDNSRKTLYLQMNSLRAEDTAVYYCARGAYKRGYAMDYWGQGTTVTVSS
VL: DLVMTQSPSSLSASVGDRVTITCKSSQSLFNSRTRKNYLAWYQQKPGKAPKLLIYWASTRESGVPSRFSGSGSGTDFTLTISSLQPEDFATYYCQQYYYHMYTFGQGTKVEIKR
notes: Intact IgG-format monoclonal antibody with CH1-hinge-CH2-CH3 and CL; Used as negative control in the RAS assays; also called CT
- binding result: no binding (tested: 2 µM)
